Test results taken from publication PMC3260234.

T1: OxyS (Mycobacterium tuberculosis) (UniProt L7N677)
T1 sequence: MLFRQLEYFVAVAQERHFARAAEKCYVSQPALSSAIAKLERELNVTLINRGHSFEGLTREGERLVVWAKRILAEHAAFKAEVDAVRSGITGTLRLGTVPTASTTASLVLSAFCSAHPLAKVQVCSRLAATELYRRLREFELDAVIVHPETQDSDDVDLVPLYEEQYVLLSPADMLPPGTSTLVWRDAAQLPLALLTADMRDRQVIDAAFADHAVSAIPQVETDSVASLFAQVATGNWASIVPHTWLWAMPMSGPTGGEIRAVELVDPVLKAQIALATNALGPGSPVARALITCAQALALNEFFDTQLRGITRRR

T2: OxyS (Mycobacterium tuberculosis, UniProt L7N677 1-314)
T2 sequence: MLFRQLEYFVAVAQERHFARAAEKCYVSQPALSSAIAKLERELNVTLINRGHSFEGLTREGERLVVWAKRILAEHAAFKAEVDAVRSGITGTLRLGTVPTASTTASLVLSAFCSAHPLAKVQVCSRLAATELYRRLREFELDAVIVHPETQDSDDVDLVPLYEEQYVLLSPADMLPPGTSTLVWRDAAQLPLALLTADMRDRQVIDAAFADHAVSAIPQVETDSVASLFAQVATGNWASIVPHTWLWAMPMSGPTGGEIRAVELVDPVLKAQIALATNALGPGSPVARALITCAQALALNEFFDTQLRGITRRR


Assays:
[1] = biological target: T1, OxyS (Mycobacterium tuberculosis); test: EMSA; conditions: 20 mM Tris-HCl pH 7.5, 100 mM NaCl, 2 mM EDTA, room temperature 20 min
[2] = biological target: T1, OxyS (Mycobacterium tuberculosis); test: competition; conditions: 20 mM Tris-HCl pH 7.5, 100 mM NaCl, 2 mM EDTA, room temperature 20 min
[3] = biological target: T2, OxyS; test: EMSA; 0-300 nM OxyS; 20 mM Tris-HCl pH 7.5, 100 mM NaCl, 2 mM EDTA, room temperature 20 min; […]; conditions: protein: recombinant; tags: 6xHis (pET28a); chain copies: 4; label: 5'-FITC on forward strand; blunt

Row | Molecule | binding [1] | binding [2] | binding result [3]
1 | TCGACATCGGCGATAACCCCGCAAGACCGGCAGACGATGTGATGGTGGTTGTCGCCGACCCTGGACTCGTAGCGCGCGACGGAGCCCGAGGGTTGGATCTTTCGCACCAAGCCCGCGGCGGTCAGGGCATGCAGCACGTCGTACACGGCTTGCCGGGATACGTCGGGCAGCGCAAAACGC (double strand) [katGp1] | no binding | no binding | 
2 | CCGATGTCGACTGTGCTGTTGGCGAGGCACCCTGTCTGACGGCCTCGGACCATAACGGCTTCCTGTTGGACGAGGCGGAGGTCATCTACTGGGGTCTATGTCCTGATTGTTCGATATCCGACACTTCGCGATCACATCCGTGATCACAGCCCGATAACACCAACTCCTGGAAGGAATGCT (double strand) [katGp2] | binds | binds | 
3 | OxyS box1 (dsDNA) DNA 1: TGTCTGACGGCCTCGGACCAT DNA 2: ATGGTCCGAGGCCGTCAGACA |  |  | binds
4 | OxyS box1mut (dsDNA) DNA 1: TGTCCCACGGCCTCGCCCCAT DNA 2: ATGGGGCGAGGCCGTGGGACA |  |  | no binding
